According to the supplement of paper PMC6757056:
± gives the standard deviation of the averaged measurements.

B1: library; a variant is named by its letters at N, in order (parent)
chain: GCUGUCACCGAGAAACUGUGAAGUAUAUCUUAAACCUGGGCACUUAAAAGAUAUAUGGAGUUAGUAGUGCAACCUGCUCGGUCUGAUGAGUCCNNNNNNGGACGAAACAGC

Tests used:
cyclic di-GMP [1] = variants of: B1; assay: normalized RNA/DNA level without ligand (relative to sTRSVctl = 100) (log10 (% of sTRSVctl)); HEK293T; ligand: cyclic di-GMP (c-di-GMP-II aptamer); higher = less ribozyme self-cleavage, higher mRNA level; settings: reporter: mCherry (pCS4076), ligand present: no
Summary of the method: (§1)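 Total RNA, extracted with EDTA 72 h after HEK293T cells were transfected with 4 µg per 6-well well of reporter-linked ribozyme switch library plasmids, was reverse-transcribed, amplified, barcoded and sequenced. Ligand, if used, was added 1 h before transfection. RNA level was derived from RNA reads divided by DNA reads and normalized to a spiked-in non-cleaving sequence or to the top sequences. This was multiplied by 100 and log10-transformed, with the top set of 25 sequences and a ≥100 DNA read minimum.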

cyclic di-GMP [2] = variants of: B1; assay: normalized RNA/DNA level with ligand (relative to sTRSVctl = 100) (log10 (% of sTRSVctl)); HEK293T; ligand: cyclic di-GMP (c-di-GMP-II aptamer); ligand concentration (+) RNA-Seq: 1 mM; higher = less ribozyme self-cleavage, higher mRNA level; settings: reporter: mCherry (pCS4076), ligand present: yes
Summary of the method: as §1

Variant | normalized RNA/DNA level without ligand (log10) (cyclic di-GMP [1]) | normalized RNA/DNA level with ligand (log10) (cyclic di-GMP [2])
GCAAAA | 1.35 ± 0.18 | 1.59 ± 0.078
UCCGGC | 1.79 ± 0.062 | 1.95 ± 0.12
UACCGC | 1.73 ± 0.031 | 1.86 ± 0.14
GCGGGA | 1.62 ± 0.078 | 1.72 ± 0.068
AAUUCC | 1.79 ± 0.028 | 1.88 ± 0.14
UUUUCA | 1.8 ± 0.025 | 1.91 ± 0.12
GCCGAG | 1.65 ± 0.031 | 1.72 ± 0.091
UAUCAA | 1.7 ± 0.031 | 1.83 ± 0.11
UUGACG | 1.77 ± 0.025 | 1.88 ± 0.1
GUAUAU | 1.6 ± 0.031 | 1.75 ± 0.11
AUAAUC | 1.677 ± 0.0067 | 1.77 ± 0.08
UGGGUC | 1.8 ± 0.026 | 1.93 ± 0.11
UAGGAC | 1.528 ± 0.015 | 1.73 ± 0.082
UUCAUG | 1.698 ± 0.013 | 1.83 ± 0.087
AUAGAU | 1.58 ± 0.056 | 1.72 ± 0.12
GCCAGA | 1.48 ± 0.05 | 1.68 ± 0.1
UGGACG | 1.782 ± 0.011 | 1.86 ± 0.15
UUGGCA | 1.76 ± 0.035 | 1.83 ± 0.037
UUGUUU | 1.78 ± 0.041 | 1.92 ± 0.085
CUGGCG | 1.74 ± 0.057 | 1.85 ± 0.092

Variant | normalized RNA/DNA level without ligand (log10) (cyclic di-GMP [1]) | normalized RNA/DNA level with ligand (log10) (cyclic di-GMP [2])
GGAAAC | 1.74 ± 0.088 | 1.83 ± 0.19
GGCCAG | 1.74 ± 0.0068 | 1.85 ± 0.025
UACCCC | 1.7914 ± 0.0016 | 1.89 ± 0.11
CAGAGG | 1.64 ± 0.069 | 1.8 ± 0.046
AUUACU | 1.73 ± 0.029 | 1.86 ± 0.081
AGCAAC | 1.65 ± 0.032 | 1.77 ± 0.092
ACUACG | 1.61 ± 0.022 | 1.81 ± 0.1
GCGCCG | 1.781 ± 0.0019 | 1.9 ± 0.1
GCGCGG | 1.796 ± 0.0029 | 1.87 ± 0.087
UCCGAG | 1.64 ± 0.082 | 1.79 ± 0.11
AAACGC | 1.67 ± 0.027 | 1.85 ± 0.082
UAGCCU | 1.73 ± 0.03 | 1.86 ± 0.043
UAAGCA | 1.75 ± 0.018 | 1.87 ± 0.082
GUUGUU | 1.67 ± 0.038 | 1.81 ± 0.098
AGUGUG | 1.57 ± 0.084 | 1.71 ± 0.13
GCUAGU | 1.58 ± 0.069 | 1.78 ± 0.086
CUACCC | 1.76 ± 0.046 | 1.88 ± 0.1
UUUACG | 1.83 ± 0.057 | 1.91 ± 0.12
AGGGUA | 1.53 ± 0.035 | 1.6 ± 0.12
GCAUUC | 1.423 ± 0.011 | 1.7 ± 0.17

Variant | normalized RNA/DNA level without ligand (log10) (cyclic di-GMP [1]) | normalized RNA/DNA level with ligand (log10) (cyclic di-GMP [2])
GACUCC | 1.77 ± 0.0029 | 1.89 ± 0.079
AUGUGA | 1.44 ± 0.082 | 1.65 ± 0.11
CUCACC | 1.7 ± 0.079 | 1.825 ± 0.013
GAGGCU | 1.83 ± 0.046 | 1.87 ± 0.068
ACGCUU | 1.37 ± 0.076 | 1.6 ± 0.17
CCCGGA | 1.48 ± 0.075 | 1.72 ± 0.13
AACAAA | 1.45 ± 0.11 | 1.65 ± 0.079
GUUUCG | 1.71 ± 0.051 | 1.85 ± 0.099
CUAUUC | 1.7 ± 0.012 | 1.85 ± 0.1
AGGCGC | 1.74 ± 0.075 | 1.86 ± 0.088
AAAGCC | 1.7 ± 0.025 | 1.84 ± 0.13
AUCGAU | 1.56 ± 0.076 | 1.77 ± 0.063
UAACCC | 1.77 ± 0.021 | 1.9 ± 0.08
CACGAG | 1.63 ± 0.028 | 1.81 ± 0.076
GUUGAA | 1.44 ± 0.083 | 1.65 ± 0.12
GCCAAC | 1.51 ± 0.086 | 1.66 ± 0.056
CCAUUU | 1.569 ± 0.013 | 1.7 ± 0.12
UAGGUC | 1.64 ± 0.032 | 1.81 ± 0.12
